pKd: −log10 of the molar value.
Biological target: pigeon ovomucoid (pigeon)
Experiment: BLI; BLItz system; biotinylated POVO; recombinant flagellin

Q: With “recombinant flagellin of Bacillus cereus HN001 (WR52_08290) (natural protein)” as the substance, how does the pKd read?
A: 8.43
